± gives the standard error. This sample holds only a part of the variants without activity.
B1: glmS ribozyme (parent)
chain: AUAAAAGCGCCAGAACUACAGAAAUGUAGUUGACGAGGAGGAGGUUUAUCGAAUUUUCGGCGGAUGCCUCCAAA

Variants of: B1
Experiment: self-cleavage kobs at 10000 uM GlcN6P; higher = faster cleavage; RNA array
Conditions: with glucosamine-6-phosphate
How it was run: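 kobs was derived by fitting per-tile medians to one- or two-exponential decays after normalising signals to baseline and to non-cleaving reference variants. Those signals came from barcoded ribozyme variants transcribed in situ by E. coli RNA polymerase on sequenced MiSeq chips, followed through a hybridised Cy3 probe at 37 °C and imaged over ~14 h. Glucosamine-6-phosphate (40 μM to 10 mM) in HEPES/KCl/Mg(OAc)2 buffer was flowed in. Weighted Michaelis–Menten fits across concentrations then gave kcat and KM.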

Row | Variant | self-cleavage kobs at 10000 uM GlcN6P
1 | AUAAAAGCGCAUGCACUACAGAAAUGUAGUUGACGAGGAGGAGGUUUAUCGAAUUUUCGGCGGAUGCCUCCAAA | 8.7e-05 ± 1.9e-05 s⁻¹
2 | AUAAAAGCGCCAGAACUACAGAAAUGUAGUUGACGAGGUGGAGGUUAAUCGAAUUUUCGGCGGAUGUCUCCAAA | 0.00456 ± 0.0007 s⁻¹
3 | AUAAAAGCUCCAGAACUACAGAAAUGUAGUUGAUGCGGAGGAGGUUUAUCGAAUUUUCGGCCGAUGCCUCCAAA | < 1e-05 s⁻¹
4 | AUAAAUGCUCCAGAACUACAGAAAUGUAGUUGACGAGGAGGAGGUUUAUCGUAUUUUCGGCGGAUGCCUCCAAA | < 1e-05 s⁻¹
5 | AUAAAAGCGCCAGAACUACAGAAAUGUAGUUGACGAGGAGGAGGUUUAUUUAAUUUUCGGCGGAUGCCUUCAAA | < 1e-05 s⁻¹
6 | AUAAAAGCGCCAGAACUACAGAAAUGUAGUUGACGAGGUGGAGGUUUAUCUAAUUUUCGGCGGAUGCCUACAAA | < 1e-05 s⁻¹
7 | AUAAAAGCGCCAGAACUACAGAAAUGUAGUUGACGACGAGGAGGUUUAUCGAGUGUUCGGCGGAUGCCUCCAAA | 3.2e-05 ± 1.4e-05 s⁻¹
8 | AUAAAAGCGCCAGAACUACAGAAAUGUAGUCGACGAGGCUGAGGUUUAUCGAAUUUUCGUCGGAUGCCUCCAAA | < 1e-05 s⁻¹
9 | AUAAAAGCGCCAGAACUACAGAAAUGUAGUUGACGAGAAGGAGGUUUAUCGAAUUUUCGGAGGAUGCCUCUAAA | < 1e-05 s⁻¹
10 | AUAAAAGCGCCAGAACUACAGAAAUGUAGUUGACGGGGAGGAGGUUUGUCGAAUUUUCGGCGGAUGCCUACAAA | < 1e-05 s⁻¹
11 | AUAAAAGCGCCAGAAAUACAGAAAUGUAGUUGACGAGGAGGAGGUUUAUCGAAUAUUCGGCGGAUGGCUCCAAA | 5.54e-05 ± 1.9e-05 s⁻¹
12 | AUAAAAGCGCCGGAACUACAGAAAUGUAGUUGACGAGGAGGAGGUUUAUCGAAUUUUCGGCGGAGGCCUUCAAA | 0.000133 ± 1.7e-05 s⁻¹
13 | AUAAAAGCGCUAGAACUACAGAAAUGUAGUUGACGAGGAGGCGGUUUAUCGAAUUUUCGGCGGAUGCCACCAAA | 9.21e-05 ± 2.5e-05 s⁻¹
14 | AUAAAAGCGGCAGAACUACAGAAAUGUAGAUGACGACGUGGAGGUUUAUCGAAUUUUCGGCAGAUGCCUCCAAA | < 1e-05 s⁻¹
15 | AUAAAAGCGCCAUAACUACAGAAAUGUAGUUGACGAGGUGGAGGUUUAUCGAUUUUUCGGCGGAUGGCUCCAAA | 4.97e-05 ± 1.8e-05 s⁻¹
16 | AUAAAAGCGCCAGAACUACAGAAAUGUAGUUGACGAGGAGGAGGUUUAUCGCAGUUUCGGCGGAUGCCUCGAAA | < 1e-05 s⁻¹
17 | AUAAAAGUGCCAGAACUACAGAAAUGUAGUUGACGAGGAGGAGGUGUAUCGAAUUUUCGGCGGAUCCCUGCAAA | 9.08e-05 ± 2.6e-05 s⁻¹
18 | AUAAAAGCGCCAGAACUACAGAAAUGUAGUUGACGAGGAGGAGGUUUAUUGAAUUUUCUGCGGUUGCCUCCAAA | < 1e-05 s⁻¹
19 | AUAAAAGGGCCAGAACUACAGAAAUGUAGGUGACGAGGAAGAGGUUUAUCGAAUUUUCGGCGGAUGCCUCCAAA | < 1e-05 s⁻¹

Row | Variant | self-cleavage kobs at 10000 uM GlcN6P
20 | AUAAAAGCGCUAGAACUACAGAAAUGUACUUGACGAGGAGGAGGUUUAUCGAAUUUUCGGCGGAUGCCUCUAAA | 0.000101 ± 1.9e-05 s⁻¹
21 | AUAAAAGCGCCGGAACUACAGAAAUGUAGUUGACGAGGAGGAGGUUUAUCGAACUUUCGGCGGAUGCCUCCAAA | 0.001 ± 0.00011 s⁻¹
22 | AUAAAAGGGCCAGCACUACAGAAAUGUAGUUGACGAGAAGGAGGUUUAUCGAAUUAUCUGCGGAUGCCUCCAAA | < 1e-05 s⁻¹
23 | AUAAAAGCGCUAGAUCUACAGAAAUGUAGUUGACGAGGAGGUGGUUUAUCGAAUUUUCGGCGGAUGCCUCCAAA | < 1e-05 s⁻¹
24 | AUAAAAGCGUCAGAACUACAGAAAUGUAGUUGGCGAGGAGGAGGUUUAUCGAAUUUUCGGCGGAUGCUUCCAAA | < 1e-05 s⁻¹
25 | AUAAAAGCGCCAGUACUACAGAAAUGUAGUUGACGAUGAGGAGGUUUGCCGAAUUUUCGGCGGAUGCCUCUAAA | < 1e-05 s⁻¹
26 | AUAAAAACGCCAGAACUACAGAAAUGUAGUUGACGAGGACGUUGUUUAUCGAAUUUCCGGCGGAUGCCUCCAAA | < 1e-05 s⁻¹
27 | AUAAAAGCGCGACAACUACAGAAAUGUAGUUGACGAGGAGGAGAUUUAUCGAAUUUUCGGCGGAUGCCUCCAAA | < 1e-05 s⁻¹
28 | AUAAAAGCGCCAGAACUACAGAAAUGUAGUUGGCGAGGAUGAGGUUUAUCGGAUUUUAGGCGGAUGCCUCCAAA | < 1e-05 s⁻¹
29 | AUAAAAGCGCCAGAACUACAGAAAUGUAGUUAACGAGGAGGAGGUUUAUCGAACUCUAGGCGGAUGCCUCCAAA | 9.78e-05 ± 2.1e-05 s⁻¹
30 | AUAAAAGCGCCCGAACUACAGAAAUGUAGUUGACGAGGAGGAGGUUUAUCGAAUUUUCGGCGGAUGCCACUAAA | 4.87e-05 ± 1.6e-05 s⁻¹
31 | AUAAAAGCGCAAGAACUACAGAAAUGUAGUUGACCAGGAGCAGGUUUAUCGAAUUUUCGGCGGAUGCCUCCAAA | < 1e-05 s⁻¹
32 | AUAAAAGCACCAGAACUACAGAAAUGUAGUUGCCGAGGAGGAGGUUUAUGGGAUUUUCUGCGGAUGCCUCAAAA | 5.24e-05 ± 2e-05 s⁻¹
33 | AUAAAAUCGCCAGAACUACAGAAAUUUAGUUGACGAGGAGGAGGUUUAUCGCAUUUUCGGCGGAUGCCUCCAAA | < 1e-05 s⁻¹
34 | AUAAAAGGGCCAGAACUACAGAAAUGUAGUUGACGAGGAGGUGGUUUAUCGAAUGUUCGGCGGAUGCCUCCAAA | < 1e-05 s⁻¹
35 | AUAAAAGCGCCUGAACUACAGAAAUGUAGUUGACGAGGAGGAGCUUUAUCGAGUUUUCGGCGGAUGCCUCCAAA | 0.000245 ± 4.7e-05 s⁻¹
36 | AUAAAAGGGCCAGAACUACAGAAAUGUAGUUGACGAGGAGGAAAUUUAUCGAAUUUUCGGCGGAUGACUGCAAA | < 1e-05 s⁻¹
37 | AUAAAAGCGCCAGAACUACAGAAAUGUAGUUGACGAGGAGGAGGUUUAUCGAAUUUCAGGCGGAUGCCUCCAAA | 2.32e-05 ± 9.2e-06 s⁻¹

— the supplement of paper PMC7125110
